± gives the uncertainty stated by the source.
Experiment: protein stability index of a GFP-peptide fusion (yeast GPS) (PSI 1-4); higher = more stable; sorted into four equal gates, so the index is relative within each strain
Summary of the method: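 Plasmids isolated from each sorting gate were PCR-amplified and Illumina-sequenced, and barcodes assigned the reads to strains. The gates, four of equal size, were set by GFP/Cherry fluorescence ratio on mid-log cultures in leucine-free medium. These cultures were yeast carrying a pooled library of tiled 17-residue yeast protein peptides fused downstream of GFP on a plasmid that also expresses Cherry. The protein stability index is the sum of every gate's read frequency times its gate number.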

| Sequence | protein stability index (pdr5∆) | protein stability index (san1∆) | protein stability index (ubr1∆) | protein stability index (doa10∆) |
| --- | --- | --- | --- | --- |
| LVKTKELIKNYITARIM [FAS1] | 2.91 ± 0.19 | 3.02 ± 0.27 | 2.64 ± 0.073 | – |
| LVQMYIGEGAKLVRDAF [RPT5] | – | 2.51 ± 0.27 | – | – |
| LVSLLDENDSKKNNAAS [YAR002W/NUP60] | 2.92 ± 0.071 | 2.86 ± 0.092 | 3.08 ± 0.056 | 3 ± 0.07 |
| LVSSASQQLLEILVTEL [RPN2] | 2.27 ± 0.058 | 2.16 ± 0.092 | 1.8 ± 0.051 | 1.93 ± 0.059 |
| LWALLNFLLPDIFGDSE [ISW2] | 1.98 ± 0.05 | 2.52 ± 0.07 | 2.64 ± 0.043 | 2.15 ± 0.05 |
| LWDVATGETYQRFVGHK [ASC1] | 3.42 ± 0.17 | 1.59 ± 0.17 | 3.4 ± 0.094 | 2.98 ± 0.19 |
| LWSIHPSRQFDHYESNQ [SRB8] | 2.24 ± 0.068 | 2.13 ± 0.11 | 2.64 ± 0.062 | 1.75 ± 0.074 |
| LYAERVQDRGLSAVAQA [RPS3] | 3.28 ± 0.065 | 3.3 ± 0.09 | 3.22 ± 0.044 | 3.09 ± 0.069 |
| LYDHWDKYHEQWIKFLL [SSN8] | 3.1 ± 0.13 | 2.84 ± 0.071 | 2.72 ± 0.054 | 3.16 ± 0.2 |
| LYFEIIHGVLKNVDREV [FAS2] | 2.04 ± 0.099 | 2.63 ± 0.13 | 1.64 ± 0.18 | 3.04 ± 0.09 |
| LYGKRFFPYYVHTIIAG [PRE7] | 1.23 ± 0.039 | 1.13 ± 0.11 | 1.14 ± 0.041 | 1.15 ± 0.032 |
| LYKFQNFQDLSYLSETL [YML103C/NUP188] | 2.87 ± 0.08 | 2.64 ± 0.12 | 2.49 ± 0.11 | 2.94 ± 0.091 |
| LYKTFFKRNAVFVGTIF [QCR9] | 1.36 ± 0.051 | 1.39 ± 0.098 | 1.36 ± 0.054 | 1.78 ± 0.075 |
| LYNFLHKYVLTLQLYMV [RGR1] | 1.43 ± 0.042 | 1.78 ± 0.13 | 1.51 ± 0.039 | 2.04 ± 0.058 |
| LYPCYFDINRSHKEGRR [SEC65] | 1.93 ± 0.16 | 1.09 ± 0.24 | 1.1 ± 0.08 | 1.15 ± 0.17 |
| LYQDMAARHRARFRSIH [RPL20A] | 2.71 ± 0.048 | 2.96 ± 0.051 | 2.95 ± 0.07 | 2.81 ± 0.071 |
| LYRSIESGEFDFDLFKE [YJL039C/NUP192] | 2.93 ± 0.1 | 3.01 ± 0.069 | 2.91 ± 0.11 | 3.1 ± 0.12 |
| MAKDIEISASESKFILE [RRP45] | 3.06 ± 0.14 | 2.99 ± 0.064 | 3.02 ± 0.093 | 3.17 ± 0.092 |
| MALKKNTHNKSTKRVTK [POP7] | 2.73 ± 0.11 | 2.82 ± 0.053 | 2.84 ± 0.06 | 2.71 ± 0.1 |
| MANKEWRVREASTSALL [ECM29] | – | – | 2.26 ± 0.2 | – |
| MAPVKSQESINQKLALV [RPL30] | 2.53 ± 0.14 | 2.18 ± 0.13 | 2.25 ± 0.061 | 2.05 ± 0.11 |
| MAQRTLKNKYESYDAAL [FAS2] | 3.059 ± 0.017 | 2.999 ± 0.015 | 3.064 ± 0.012 | 3.147 ± 0.019 |
| MASGSTTFTKVAAKWNT [PRP8] | 2.52 ± 0.069 | 2.51 ± 0.084 | 2.93 ± 0.07 | 2.58 ± 0.072 |
| MATPSFGNSSPQLTFTH [YML103C/NUP188] | 2.1 ± 0.068 | 2.83 ± 0.067 | 2.73 ± 0.062 | 2.75 ± 0.12 |
| MEADPSLHPLFEQFEKF [RPN9] | 2.84 ± 0.061 | 2.39 ± 0.1 | 2.55 ± 0.05 | 2.82 ± 0.073 |
| MEDKISEFLNVPFESLQ [YIL149C/MLP2] | 3.35 ± 0.079 | 3.33 ± 0.067 | 3.06 ± 0.057 | 3.18 ± 0.09 |
| MEDPPSTVSGELNDNPA [YMR153W/NUP53] | 2.81 ± 0.054 | 2.84 ± 0.077 | 2.83 ± 0.051 | 2.45 ± 0.081 |
| MEETEQKKIQINKEMGE [SMC3] | – | – | 2.49 ± 0.26 | – |

— the supplement of paper PMC9732359
